{"source": "patent US20020009436A1", "about": "“Methods and compositions for inhibiting adhesion by microorganisms” (priority 1999, published 2002)", "molecules": {"B1": {"name": "asparaginase: enzyme that catalyzes hydrolysis of the side chain amide group of asparagine to a carboxyl group; E. coli asparaginase (protein, UniProt P00805 23-348, looked up)", "L-asparaginase 2": "LPNITILATGGTIAGGGDSATKSNYTVGKVGVENLVNAVPQLKDIANVKGEQVVNIGSQDMNDNVWLTLAKKINTDCDKTDGFVITHGTDTMEETAYFLDLTVKCDKPVVMVGAMRPSTSMSADGPFNLYNAVVTAADKASANRGVLVVMNDTVLDGRDVTKTNTTDVATFKSVNYGPLGYIHNGKIDYQRTPARKHTSDTPFDVSKLNELPKVGIVYNYANASDLPAKALVDAGYDGIVSAGVGNGNLYKSVFDTLATAAKTGTAVVRSSRVPTGATTQDAEVDDAKYGFVASGTLNPQKARVLLQLALTQTKDPQQIQQIFNQY"}}, "key": {"Bacillus cereus": {"test_system": "Bacillus cereus", "experiment": "Growth inhibition of Bacillus cereus", "assay_type": "cell-based"}, "[1]": {"test_system": "proteolytic activity of the P. gingivalis", "experiment": "Hydrolysis of collagen substrate (azocoll) by P. gingivalis", "assay_type": "cell-based", "excerpt": "The asparaginase and polyphenol oxidase thus not only affect the adhesion and/or hemagglutination, but also the proteolytic activity of the P. gingivalis."}, "S. aureus": {"test_system": "S. aureus", "experiment": "Fibronectin binding assay, S. aureus", "assay_type": "cell-based", "details": "polyphenol oxidase 80 U/ml, asparaginase 20 U/ml", "description": "(§1) Wells were filled with human serum fibronectin (50 μg/ml) diluted in carbonate buffer (50 mM Na2CO3—NaHCO3, pH 9.5 overnight). Controls were coated with 1% BSA. The wells were washed three times with PBS and incubated with PBS-Tween (0.5% Tween 20 and 0.05% NaN3) 1 h at 37° C. After attachment, the wells were washed three times with PBS-Tween and allowed to dry. Subsequent assays were as described hereinabove."}, "P. gingivalis": {"test_system": "P. gingivalis", "experiment": "Hemagglutination assay of periodontopathogens, P. gingivalis", "assay_type": "cell-based, Porphyromonas gingivalis", "parameters": "key: + Hemagglutination; − No hemagglutination", "details": "sheep blood, polyphenol oxidase 90 U/ml or asparaginase 20 U/ml, 90 min", "description": "The hemagglutinations were carried out in 96 microwell (Nunc) plates in which 50 μl of 1% suspension of sheep blood and 50 μl of serially diluted cells suspension in phosphate buffered (10 mM Na2HPO4, 10 mM KH2PO4, 150 mM NaCl, 3 mM KCl) were added. The cells were adjusted at 1.4 OD at 540 nm. All the strains were treated in NaCl-free buffer with polyphenol oxidase (90 U/ml) or asparaginase (20 U/ml) for 90 min at 37° C. before hemagglutination."}, "[2]": {"test_system": "S. sobrinus 6715 glucan-binding lectin", "experiment": "Aggregation of S. sobrinus with high molecular weight dextran T-2000 (standard rate assay)", "assay_type": "cell-based, Streptococcus sobrinus", "details": "cells treated with asparaginase", "description": "S. sobrinus 6715 was maintained on tryptic soy agar (Difco, Detroit, Mich.) and grown for experiments in Terleckyj's defined medium or tryptic soy broth (TSB) (Difco) pretreated with dextranase (1 mg of enzyme per g dry medium) and invertase (5 mg per g dry medium) for 2 h each in 5% CO2 at 37° C. for 16-18h. Cultures were centrifuged at 12,000×g for 10 min and washed twice with cold phosphate buffered saline (PBS, 20 mM, pH 7.2). Cells were suspended in PBS to an optical density of 0.8 (A540). Cultures grown in TSB were harvested and suspended in PBS and subsequently treated with dextranase for 1 h, followed by washing two times in PBS.\nThe standard rate assay published by Drake et al. (Drake D. et al. Infect. Immun. 56:1864-1872 (1988)) was used to study the interaction of S. sobrinus 6715 glucan-binding lectin with high molecular weight dextran. Briefly, bacterial suspensions were adjusted to an optical density of 0.75-0.90 in PBS, and 3-ml suspensions were added to test tubes (13×100 mm). Dextran T-2000 was added at a final concentration of 10 1μg/ml and the suspensions were vortexed for 5 sec. Control tubes received PBS. The decrease in optical density was continuously monitored spectrophotometrically for 5 min. Rate constants were obtained from the slopes of first-order plots of ln A/A0 (A=observed optical density; A0 optical density at time zero) versus time in minutes. […]"}, "S. pneumoniae": {"test_system": "S. pneumoniae", "experiment": "Adhesion of pneumococci to buccal cells", "assay_type": "cell-based", "details": "strain 6303", "description": "Methods for handling polyphenol oxidase and asparaginase and for observing adhesion by microorganisms were generally as described in the previous Examples with variations to adapt these methods to these bacteria and to buccal cells. In particular, adhesion was measured in a manner similar to that just described for S. pyogenes."}, "Proteus vulgaris": {"test_system": "Proteus vulgaris", "experiment": "Growth inhibition of Proteus vulgaris", "assay_type": "cell-based"}, "P-fimbriated E. coli": {"test_system": "P-fimbriated E. coli", "experiment": "Flow cytometric adhesion of P-fimbriated E. coli to UECs", "assay_type": "cell-based", "excerpt": "Methods for handling polyphenol oxidase and asparaginase and for observing adhesion by microorganisms were generally as described in the previous Examples with variations to adapt these methods to epithelial cells.\nThe bacteria were labeled intracellularly with the fluorescein dye CFDA-SE. Median fluorescence intensity of the UECs was taken as a measure of the number of bacteria attached to them. In the Figures below, median fluorescence is converted to % adhesion using control conditions (UEC+untreated bacteria) as 100%."}, "[3]": {"test_system": "A. naeslundii ATCC 12104 (adhesin) / P. intermedia (receptor)", "experiment": "Coaggregation A. naeslundii ATCC 12104 / P. intermedia", "details": "P. intermedia (receptor) enzyme treated; polyphenol oxidase 90 U/ml, asparaginase 20 U/ml", "method": "S. sanguis 10556, A. naeslundii strains 12104 and T14V and E. coli were grown static cultures in Todd-Hewitt broth (BBL Microbiology Systems, Cockeysville, Md.). P. gingivalis W50, A. actinomycetemcomitans and C. ochracea were grown in brain heart infusion broth (BBL). F. nucleatum 22586 and P. intermedia 25611 were grown in modified Schaedler broth (BBL). All oral species except S. sanguis 10556 were incubated at 37° C. as static cultures under an anaerobic atmosphere containing H2, CO2 and N2(10:10:80) with GasPaks (BBL). S. sanguis was incubated at 37° C. as static cultures in 5% CO2.\nBacteria were harvested in the mid to late exponential growth phase by centrifugation (10,000×g for 10 min at 4° C.). The cells were washed twice in coaggregation buffer (30 mM 3-[N-morpholino]propanesulfonic acid (MOPS), pH 7.0) and adjusted to an optical density of 0.6-0.8 at 540 nm (1-cm path). […]\nCoaggregation was assessed by turbidity changes. Following mixing of the cells for 10 s on a Vortex mixer, absorbance readings were made every 30 min. The percentage of coaggregation was calculated from the following formula: Percent coaggregation=[OD540(A)+OD540(B)−OD540(A+B)]/(OD540(A)+OD540(B)), where A is the control containing cells of one strain, B is the control containing cells of the other strain, and A+B is the reaction mixture containing both cells. […]"}, "S. pyogenes": {"test_system": "S. pyogenes", "experiment": "Fibronectin binding assay, S. pyogenes", "assay_type": "cell-based", "details": "polyphenol oxidase 80 U/ml, asparaginase 20 U/ml", "description": "as §1"}}}
{"molecule": "B1", "values": [{"measurement": "inhibition of growth of Bacillus cereus", "setting": "Bacillus cereus", "result": "did not significantly inhibit growth"}, {"measurement": "hydrolysis of the collagen substrate (azocoll)", "setting": "[1]", "result": "reduction of the hydrolysis"}, {"measurement": "Absorbance (fibronectin)", "setting": "S. aureus; S. aureus Cowan, untreated 0.33", "result": 0.18}, {"measurement": "Absorbance (fibronectin)", "setting": "S. aureus; S. aureus Wood, untreated 0.42", "result": 0.35}, {"measurement": "Hemagglutination", "setting": "P. gingivalis; dilution 1/2", "result": "−"}, {"measurement": "Hemagglutination", "setting": "P. gingivalis; dilution 1/8", "result": "−"}, {"measurement": "Hemagglutination", "setting": "P. gingivalis; dilution 1/16", "result": "−"}, {"measurement": "Hemagglutination", "setting": "P. gingivalis; dilution 1/32", "result": "−"}, {"measurement": "Hemagglutination", "setting": "P. gingivalis; dilution 1/64", "result": "−"}, {"measurement": "Hemagglutination", "setting": "P. gingivalis; dilution 1/128", "result": "−"}, {"measurement": "Hemagglutination", "setting": "P. gingivalis; dilution 1/256", "result": "−"}, {"measurement": "Hemagglutination", "setting": "P. gingivalis; dilution 1/512", "result": "−"}, {"measurement": "ability of cells to aggregate high molecular weight dextrans", "setting": "[2]", "result": "reduced"}, {"measurement": "adhesion of S. pneumoniae to buccal cells", "setting": "S. pneumoniae", "result": "able to reduce adhesion"}, {"measurement": "inhibition of growth of Proteus vulgaris", "setting": "Proteus vulgaris", "result": "did not significantly inhibit growth"}, {"measurement": "decrease in adhesion to UECs", "setting": "P-fimbriated E. coli; asparaginase 2.5 units/ml", "result": 45, "unit": "%"}, {"measurement": "decrease in adhesion to UECs", "setting": "P-fimbriated E. coli; asparaginase 5 units/ml", "result": 55, "unit": "%"}, {"measurement": "decrease in adhesion to UECs", "setting": "P-fimbriated E. coli; asparaginase 25 units/ml", "result": 85, "unit": "%"}, {"measurement": "adhesion to UECs", "setting": "P-fimbriated E. coli; bacteria first incubated with globoside, then polyphenol oxidase 282 units/ml or asparaginase 5 units/ml", "result": "nearly the same as that of untreated bacteria"}, {"measurement": "Inhibition % of coaggregation", "setting": "[3]", "result": 23, "unit": "%"}, {"measurement": "Absorbance (fibronectin)", "setting": "S. pyogenes; S. pyogenes M4, untreated 0.32", "result": 0.15}, {"measurement": "Absorbance (fibronectin)", "setting": "S. pyogenes; S. pyogenes M24, untreated 0.33", "result": 0.21}]}
